Data: patent US20150126710A1 (APOGENIX, published 2015)

Assays:
TRAIL-Receptor 1-Fc [1] = target: T1, TRAIL-Receptor 1-Fc (UniProt O00220 109-239, limits assumed); assay: Streptactin-ELISA, supernatant immobilized, constant concentration of TRAIL-Receptor 1-Fc (FIG. 14A)
T1 construct: Bought from R&D Systems; also called TRAILR1; not shown: Fc part of the bought fusion protein
Description: (§1) To determine the binding of receptors to constructed ligands, streptactin-coated 96-well microplates were used. Therefore, supernatants from transiently transfected HEK293 cells, mouse sera or purified proteins were immobilized on streptactin-plates (IBA GmbH) for 1-3 hours in PBS. Samples were diluted in ELISA binding/blocking buffer (PBS, 0.1% Tween-20, 20% SuperBlock T20-PBS (Pierce)). Plates were washed with PBS+0.1% Tween-20 and incubated with mouse-anti-TRAIL antibody (Pharmingen, clone RIK-2), TRAIL-Receptor 1-Fc (R&D Systems), TRAIL-Receptor 2-Fc (R&D Systems), TACI-Fc (R&D Systems) or HVEM-Fc (R&D Systems) for one hour at room temperature. Plates were again washed and Fc-proteins were detected with anti-human- or anti-mouse-Fc-specific peroxidase-conjugated antibodies (Sigma). Colour reaction was done by addition of 100 μl per well of TMB substrate (Kem-En-Tec Diagnostics) and the absorbance at 450 nm and 630 nm was determined with an ELISA reader after addition of 25 μl of 25% H₂SO₄ as stop-solution. Values were calculated as 450 nm-630 nm with MS Excel.
The selectivity of TRAIL-Receptor 1 or TRAIL-Receptor 2 towards fusion proteins of SPD/ccSPD and TRAIL, TRAILR1 mut and TRAILR2mut was shown by Streptactin-ELISA. Therefore, TRAIL-SPD-fusion proteins in supernatants from transiently transfected HEK293 cells were immobilized on Streptactin coated microplates. Cell supernatant from untransfected cells served as negative control. Specifically bound proteins were detected with constant (A, B) or varying (C, D) concentrations of either TRAIL-Receptor 1-Fc or TRAIL-Receptor 2-Fc. As shown in (A), the ligand TRAILR1 mut fused to SPD variants is deteced by TRAIL-Receptor 1, whereas the ligand TRAILR2mut is not. As shown in (B), the ligand TRAILR2mut is preferentially detected by TRAIL-Receptor 2, whereas TRAILR1 mut- and TRAIL wild-type constructs are equally well detected. As shown in C, TRAIL-Receptor 1-Fc bound to TRAIL-R1mut-ASPD and TRAIL-ASPD equally well over the whole receptor titration range, whereas TRAIL-R2mut-ASPD is not detected. As shown in D, TRAIL-Receptor 2-Fc bound to TRAIL-R2mut-ASPD and TRAIL-ASPD equally well over the receptor titration range analyzed, whereas the signal for TRAIL-R1mut-ASPD decreased rapidely with decreasing concentrations of receptor.

TRAIL-Receptor 1-Fc [2] = target: T1, TRAIL-Receptor 1-Fc; assay: Streptactin-ELISA, LIGHT-ASPD immobilized via Strep-tag II
Description: as §1
Varying concentrations (0-10 microgram/ml) of affinity and SEC purified, trimeric LIGHT-ASPD were used for immobilized via the Strep-tag II on Streptactin-coated microplates. LIGHT-ASPD was then detected in a ELISA set-up using 100 ng/ml of Fc-fusion proteins of the receptors HVEM and TRAIL-Receptor 1, respectively. […]

T1 sequence (O00220 109-239 limits assumed): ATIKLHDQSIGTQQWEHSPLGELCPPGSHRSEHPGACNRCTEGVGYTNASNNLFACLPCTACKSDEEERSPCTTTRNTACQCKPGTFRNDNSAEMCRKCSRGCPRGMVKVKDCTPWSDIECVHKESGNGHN

| Binder | binding result (TRAIL-Receptor 1-Fc [1]) | binding result (TRAIL-Receptor 1-Fc [2]) |
| --- | --- | --- |
| TRAILR2mut-A-CCSPD (ligand, Used as HEK293 supernatant) QRVAAHITGTRGRSNTLSSPNSKNEKALGRKINSWESSRSGHSFLSNLHLRNGELVIHEKGFYYIYSQTQFKFREEIKENTKNDKQMVQYIYKYTSYPDPILLMKSARNSCWSKDAEYGLYSIYQGGIFELKENDRIFVSVTNERLLQMDHEASFFGAFLVGSSGSSGSSGSGLPDVASLRQQVEALQGQVQHLQAAFSQYKKVELFPNGPSSSSSSAWSHPQFEK | no binding | – |
| TRAILR2mut-D-CCSPD (ligand, Used as HEK293 supernatant) QRVAAHITGTRGRSNTLSSPNSKNEKALGRKINSWESSRSGHSFLSNLHLRNGELVIHEKGFYYIYSQTQFKFREEIKENTKNDKQMVQYIYKYTSYPDPILLMKSARNSCWSKDAEYGLYSIYQGGIFELKENDRIFVSVTNERLLQMDHEASFFGAFLVGSGLPDVASLRQQVEALQGQVQHLQAAFSQYKKVELFPNGPSSSSSSAWSHPQFEK | no binding | – |
| TRAILR2mut-D-SPD (ligand, Used as HEK293 supernatant) QRVAAHITGTRGRSNTLSSPNSKNEKALGRKINSWESSRSGHSFLSNLHLRNGELVIHEKGFYYIYSQTQFKFREEIKENTKNDKQMVQYIYKYTSYPDPILLMKSARNSCWSKDAEYGLYSIYQGGIFELKENDRIFVSVTNERLLQMDHEASFFGAFLVGSGLPDVASLRQQVEALQGQVQHLQAAFSQYKKVELFPNGQSVGEKIFKTAGFVKPFTEAQLLCTQAGGQLASPRSAAENAALQQLVVAKNEAAFLSMTDSKTEGKFTYPTGESLVYSNWAPGEPNDDGGSEDCVEIFTNGKWNDRACGEKRLVVCEFGGSPSSSSSSAWSHPQFEK | no binding | – |

Next, values leading:

| binding result (TRAIL-Receptor 1-Fc [1]) | binding result (TRAIL-Receptor 1-Fc [2]) | Binder |
| --- | --- | --- |
| – | no binding | LIGHT-ASPD (ligand, Human LIGHT-RBD (Glu91-Val240), A-linker, neck + CRD of human SP-D, linker element and Strep-tag II; Signal peptide 1-20 left out; Trimer by SEC, glycosylated; also called Sp-LIGHT-ASPD) EVNPAAHLTGANSSLTGSGGPLLWETQLGLAFLRGLSYHDGALVVTKAGYYYIYSKVQLGGVGCPLGLASTITHGLYKRTPRYPEELELLVSQQSPCGRATSSSRVWWDSSFLGGVVHLEAGEEVVVRVLDERLVRLRDGTRSYFGAFMVGSSGSSGSSGSGLPDVASLRQQVEALQGQVQHLQAAFSQYKKVELFPNGQSVGEKIFKTAGFVKPFTEAQLLCTQAGGQLASPRSAAENAALQQLVVAKNEAAFLSMTDSKTEGKFTYPTGESLVYSNWAPGEPNDDGGSEDCVEIFTNGKWNDRACGEKRLVVCEFGGSPSSSSSSAWSHPQFEK |
| no binding | – | TRAILR2mut-ASPD (ligand, TRAIL-Receptor 2 selective mutein of the human TRAIL-RBD, A-linker, neck + CRD of human SP-D, linker element and Strep-tag II; Signal peptide 1-20 left out; Homotrimer by SEC; also called Sp-TRAILR2mut-ASPD) QRVAAHITGTRGRSNTLSSPNSKNEKALGRKINSWESSRSGHSFLSNLHLRNGELVIHEKGFYYIYSQTQFKFREEIKENTKNDKQMVQYIYKYTSYPDPILLMKSARNSCWSKDAEYGLYSIYQGGIFELKENDRIFVSVTNERLLQMDHEASFFGAFLVGSSGSSGSSGSGLPDVASLRQQVEALQGQVQHLQAAFSQYKKVELFPNGQSVGEKIFKTAGFVKPFTEAQLLCTQAGGQLASPRSAAENAALQQLVVAKNEAAFLSMTDSKTEGKFTYPTGESLVYSNWAPGEPNDDGGSEDCVEIFTNGKWNDRACGEKRLVVCEFGGSPSSSSSSAWSHPQFEK |
